B1: 107_A01 scFv (6xHis/tri-Flag tags) (scFv)
scFv: QMQLVQSGAEVKKPGAPVKVSCKVSGYTFTDYYMHWVQQAPGKGLEWMGLVDPEDGETIYAEKFQGRVTITADTSTDTAYMELSSLRSEDTAVYYCATDATTPYWGMVSWGQGTLVTVSSLEGGGGSGGGGSGGGASDIQMTQSPSSLSASVGDRVTITCQASQDISNYLNWYQQKPGRAPKVLIYDASNLETGVPSRFSGSGSGTEFTLTISNLRPDDFATYYCQQGDSFPLTFGGGTKVEIK
notes: 7A2 derivative, only VH CDR3 changed; not shown: 6xHis/tri-FLAG tags of pSANG10-3F
B2: 110_A06 scFv (6xHis/tri-Flag tags) (scFv)
scFv: B1 scFv with V108Q, S109L
notes: 7A2 derivative, only VH CDR3 changed; also called 110_A6; not shown: 6xHis/tri-FLAG tags of pSANG10-3F
B3: 111_D06 scFv (6xHis/tri-Flag tags) (scFv)
scFv: B1 scFv with V108W, S109Q
notes: as for B1
B4: 110_A01 scFv (6xHis/tri-Flag tags) (scFv)
scFv: B1 scFv with G106F, M107P, V108Y, S109L
notes: 7A2 derivative, only VH CDR3 changed; also called 110_A1; not shown: 6xHis/tri-FLAG tags of pSANG10-3F
B5: 107_A07 scFv (6xHis/tri-Flag tags) (scFv)
scFv: B1 scFv with V108M, S109W
notes: as for B1
B6: 107_A08 scFv (6xHis/tri-Flag tags) (scFv)
scFv: B1 scFv with S109E
notes: as for B1
B7: 110_A12 scFv (6xHis/tri-Flag tags) (scFv)
scFv: B1 scFv with G106F, M107P, V108R, S109E
notes: as for B1
B8: 112_G01 scFv (6xHis/tri-Flag tags) (scFv)
scFv: B1 scFv with V108W, S109H
notes: not shown: 6xHis/tri-FLAG tags
B9: 110_A10 scFv (6xHis/tri-Flag tags) (scFv)
scFv: B1 scFv with V108Q, S109T
notes: as for B1
B10: 111_D2 (scFv)
scFv: B1 scFv with G106F, M107P, V108W, S109I
notes: as for B8
B11: 111_E4 (scFv)
scFv: B1 scFv with M107I, V108E, S109V
notes: as for B8
B12: 112_H9 (scFv)
scFv: B1 scFv with G106F, M107P, V108Y
notes: as for B8
B13: 112_G3 (scFv)
scFv: B1 scFv with V108S, S109A
notes: as for B8
B14: 112_H11 (scFv)
scFv: B1 scFv with G106F, M107P, V108Q, S109V
notes: as for B8
B15: 111_D3 (scFv)
scFv: B1 scFv with M107A, V108A, S109L
notes: as for B8
B16: 111_C12 (scFv)
scFv: B1 scFv with G106F, M107P, V108R, S109Y
notes: as for B8
B17: 112_G4 (scFv)
scFv: B1 scFv with M107A, V108Q
notes: as for B8
B18: 111_D8 (scFv)
scFv: B1 scFv with V108S, S109W
notes: as for B8
B19: 111_E10 (scFv)
scFv: B1 scFv with G106Y, M107P, V108Y, S109A
notes: as for B8
B20: 111_D4 (scFv)
scFv: B1 scFv with V108W, S109V
notes: as for B8
B21: 112_H7 (scFv)
scFv: B1 scFv with M107V, V108Q
notes: as for B8
B22: 112_H1 (scFv)
scFv: B1 scFv with M107A, V108A, S109V
notes: as for B8
B23: 111_E12 (scFv)
scFv: B1 scFv with G106S, M107P, V108W, S109V
notes: as for B8
B24: 112_H10 (scFv)
scFv: B1 scFv with M107I, V108R, S109K
notes: as for B8
B25: 112_G7 (scFv)
scFv: B1 scFv with G106F, M107P, V108Q, S109T
notes: as for B8
B26: 112_H12 (scFv)
scFv: B1 scFv with G106F, M107P, V108Y, S109K
notes: as for B8
B27: 111_E3 (scFv)
scFv: B1 scFv with G106F, M107P, S109E
notes: as for B8
B28: 112_F12 (scFv)
scFv: B1 scFv with V108Q, S109W
notes: as for B8
B29: 111_E5 (scFv)
scFv: B1 scFv with V108C, S109E
notes: as for B8
B30: 111_D5 (scFv)
scFv: B1 scFv with G106F, M107P, V108A, S109V
notes: as for B8
B31: 112_G6 (scFv)
scFv: B1 scFv with G106F, M107P, V108F, S109V
notes: as for B8
B32: 111_E6 (scFv)
scFv: B1 scFv with V108A, S109V
notes: as for B8
B33: 111_E8 (scFv)
scFv: B1 scFv with G106F, M107P, V108Y, S109R
notes: as for B8
B34: 112_G5 (scFv)
scFv: B1 scFv with V108R
notes: as for B8
B35: 112_F8 (scFv)
scFv: B1 scFv with G106T, M107P, V108F, S109L
notes: as for B8
B36: 111_D1 (scFv)
scFv: B1 scFv with V108D, S109E
notes: as for B8
B37: 112_H8 (scFv)
scFv: B1 scFv with G106L, M107P, V108L, S109Y
notes: as for B8
B38: 111_E11 (scFv)
scFv: B1 scFv with V108R, S109E
notes: as for B8
B39: 111_D7 (scFv)
scFv: B1 scFv with G106F, M107P, V108Y, S109A
notes: as for B8
B40: 112_H6 (scFv)
scFv: B1 scFv with V108M, S109E
notes: as for B8
B41: 112_G9 (scFv)
scFv: B1 scFv with V108Q, S109R
notes: as for B8
B42: 112_H5 (scFv)
scFv: B1 scFv with V108Q, S109A
notes: as for B8
B43: 112_G11 (scFv)
scFv: B1 scFv with G106F, M107P, V108Y, S109T
notes: as for B8
B44: 112_F11 (scFv)
scFv: B1 scFv with V108M, S109Q
notes: as for B8
B45: 112_H4 (scFv)
scFv: B1 scFv with V108W, S109K
notes: as for B8
B46: 112_F4 (scFv)
scFv: B1 scFv with V108A, S109D
notes: as for B8
B47: 111_E7 (scFv)
scFv: B1 scFv with V108M, S109M
notes: as for B8
B48: 111_D11 (scFv)
scFv: B1 scFv with V108M, S109R
notes: as for B8
B49: 112_F1 (scFv)
scFv: B1 scFv with V108A, S109R
notes: as for B8

Positions count from the first letter of the chain named.

One assay deals with T1, MET928 (cMET protein derived from construct 25-928) (human, UniProt P08581 25-928).
T1 construct: MET ectodomain, residues 1-24 are the leader; produced in Lec 8 cells; background text says the ectodomain is furin-cleaved into alpha (25-307) and beta chains; biotinylated form used in selections; also called MET928 extracellular domain; Met extracellular domain
T1 sequence (P08581 25-928): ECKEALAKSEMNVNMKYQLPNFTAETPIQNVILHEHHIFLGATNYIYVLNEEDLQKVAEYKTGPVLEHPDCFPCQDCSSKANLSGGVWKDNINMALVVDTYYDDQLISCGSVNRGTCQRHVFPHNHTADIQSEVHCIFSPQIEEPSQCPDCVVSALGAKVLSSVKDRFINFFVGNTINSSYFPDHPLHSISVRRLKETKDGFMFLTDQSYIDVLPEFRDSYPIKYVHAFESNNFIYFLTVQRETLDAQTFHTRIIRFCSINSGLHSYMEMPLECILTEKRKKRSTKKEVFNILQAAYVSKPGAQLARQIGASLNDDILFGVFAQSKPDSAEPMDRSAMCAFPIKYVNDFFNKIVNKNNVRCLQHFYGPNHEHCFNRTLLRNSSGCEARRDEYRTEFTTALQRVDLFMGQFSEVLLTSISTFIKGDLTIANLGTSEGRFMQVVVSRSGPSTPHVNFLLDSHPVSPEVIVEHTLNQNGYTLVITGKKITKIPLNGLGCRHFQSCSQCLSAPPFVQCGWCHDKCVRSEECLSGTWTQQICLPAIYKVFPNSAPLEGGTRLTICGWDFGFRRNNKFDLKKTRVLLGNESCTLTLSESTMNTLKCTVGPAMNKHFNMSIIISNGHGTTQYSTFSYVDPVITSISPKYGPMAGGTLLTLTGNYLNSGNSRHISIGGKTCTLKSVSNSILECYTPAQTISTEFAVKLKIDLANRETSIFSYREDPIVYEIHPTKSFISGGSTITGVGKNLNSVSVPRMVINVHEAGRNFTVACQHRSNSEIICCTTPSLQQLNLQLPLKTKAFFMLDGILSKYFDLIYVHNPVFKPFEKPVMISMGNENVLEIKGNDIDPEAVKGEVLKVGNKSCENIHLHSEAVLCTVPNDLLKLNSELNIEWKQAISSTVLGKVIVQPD
As to the kind of experiment: Biacore SPR, MET-928 on chip, scFv format. As to the method:
The binding characteristics of 7A2 and its derivatives were measured using a GE Healthcare Biacore biosensor.
Molecule B1 displayed a dissociation constant Kd of 0.0652 nM, a koff of 0.00321 s⁻¹ and a kon of 4.92e+07 M⁻¹ s⁻¹.

As for B2, binding was characterised by a dissociation constant (Kd) of 0.121 nM, the koff was 0.00417 s⁻¹ and the kon is 3.45e+07 M⁻¹ s⁻¹.

Take B3: the Kd stood at 0.183 nM, the off-rate (koff) was 0.00549 s⁻¹ and the on-rate constant (kon) amounted to 3.01e+07 M⁻¹ s⁻¹.

Turning to B4, the Kd was 0.322 nM, the koff was 0.00163 s⁻¹ and the kon is 5.05e+06 M⁻¹ s⁻¹.

In the case of B5, the dissociation constant Kd came out at 0.346 nM, the koff was 0.00115 s⁻¹ and the kon amounted to 3.31e+06 M⁻¹ s⁻¹.

As to B6, the equilibrium dissociation constant (Kd) turned out to be 0.274 nM, the koff amounted to 0.00691 s⁻¹ and the association rate constant (kon) came to 2.52e+07 M⁻¹ s⁻¹.

The molecule B7 had a Kd of 0.958 nM, a koff of 0.00156 s⁻¹ and an on-rate (kon) of 1.63e+06 M⁻¹ s⁻¹.

For B8, the Kd stood at 0.786 nM, the koff was 0.00238 s⁻¹ and the kon came out at 3.03e+06 M⁻¹ s⁻¹.

B9 yielded a Kd of 0.301 nM, a koff of 0.00273 s⁻¹ and a kon of 9.08e+06 M⁻¹ s⁻¹.

In the next assay the target is T1, MET928 (cMET protein derived from …). As to the kind of experiment: ELISA, soluble scFv. For orientation: An ELISA detects its analyte on a solid surface through an enzyme-linked reagent.
Regarding B10, the binding result was “binds”.

On to B11, for which the binding result is given as “binds”.

On to B12, for which the binding result is given as “binds”.

Turning to B13, the binding result is “binds”.

For B14, the binding result is “binds”.

Take B15: the binding result is “binds”.

As to B16, the binding result is listed as “binds”.

Consider B17, for which the binding result is listed as “binds”.

For B18, the binding result is given as “binds”.

Consider B19, for which the binding result is listed as “binds”.

Take B20: the binding result is on record as “binds”.

With B21, the binding result is recorded as “binds”.

Regarding B22, the binding result was “binds”.

For the molecule B23, the binding result is listed as “binds”.

With B24, the binding result is reported as “binds”.

For B25, the binding result was “binds”.

Consider B26, for which the binding result was “binds”.

With B27, the binding result is recorded as “binds”.

For the molecule B28, the binding result is on record as “binds”.

Regarding B29, the binding result is recorded as “binds”.

As to B30, the binding result is on record as “binds”.

For B31, the binding result is recorded as “binds”.

For B32, the binding result is reported as “binds”.

On to B33, for which the binding result is listed as “binds”.

With B34, the binding result was “binds”.

Consider B35, for which the binding result is “binds”.

Regarding B36, the binding result was “binds”.

With B37, the binding result is “binds”.

Consider B38, for which the binding result is listed as “binds”.

With B39, the binding result is recorded as “binds”.

As for B40, the binding result is reported as “binds”.

In the case of B41, the binding result is “binds”.

Consider B42, for which the binding result was “binds”.

Consider B43, for which the binding result was “binds”.

As for B44, the binding result was “binds”.

With B45, the binding result is “binds”.

As to B46, the binding result was “binds”.

With B47, the binding result is recorded as “binds”.

Consider B48, for which the binding result was “binds”.

Take B49: the binding result is listed as “binds”.

What is called Kd is the equilibrium constant for the complex coming apart. By koff is commonly meant the first-order rate constant of dissociation. A low value points to a long-lived complex. For orientation: kon means the second-order rate constant of association. Higher therefore signals fast association.

Source of the values: US20150147274A1 (CANCER RESEARCH TECHNOLOGY, published 2015).
